For the assay, the target named is Bd-cys-S-fluorescein conjugate (Staphylococcus aureus). The assay is described as follows: ELISA. (In general: ELISA stands for enzyme-linked immunosorbent assay.)

Substance “HRP-conjugated guinea pig IgG (antibody)” registered a net absorbance at 405 nm (net absorbance (405 nm)) of 0.91.
Turning to HRP-conjugated rabbit IgG (antibody), the net absorbance at 405 nm (net absorbance (405 nm)) was determined as 1.13.
